# Data reported in patent US20130316929A1 (Daiichi Sankyo, published 2013).
# Key:
# [1] = target: T1, Recombinant Human EphA2, CF (human, UniProt P29317 25-534); assay: phage ELISA, hEphA2 immobilized on a Maxisorp plate, two-fold dilutions of phage stock, anti-M13-HRP, OD405 nm [A) (1]
# T1 construct: Bought recombinant protein; also called hEphA2; recombinant hEphA2
# Description: (§1) As to 3 clones (α-EphA2 #1 to #3: corresponding to SEQ ID NOs: 3 to 5, respectively, in the Sequence Listing and to Nos. 2 to 4, respectively in FIG. 4) selected from the Escherichia coli colonies after the final round of panning with hEphA2 as a target molecule, an Escherichia coli suspension with OD_{600 nm}=0.3 was prepared using 2×YT/Amp/1% Glu. The Escherichia coli cells of each clone were shake-cultured at 37° C. and allowed to grow until OD_{600 nm}=0.5. A sufficient amount of helper phages M13K07 was added thereto to infect the cells at 37° C. for 30 minutes. After addition of 2×YT/Amp/Kan/0.25 mM IPTG, the helper phage-infected Escherichia coli was shake-cultured overnight at 22° C. 20% PEG/2.5 M NaCl solution was added to the recovered culture supernatant to precipitate phages. The precipitated phages were suspended in PBS. This phage stock solution and a series of two-fold dilutions with PBS were used in phage ELISA. An Escherichia coli TG-1 strain having a pCANTAB 5E vector containing the wild-type TACI_d2 gene was also subjected to the same operation as above to prepare phages.
# (§2) TACI_d2 mutant-displaying phages were added to these Maxisorp plates and reacted for 2 hours. Each Maxisorp plate was washed with TBST. Then, an Anti-M13 antibody diluted 5000-fold was added thereto. After washing of the Maxisorp plate with TBST again, the amount of a phage bound with the protein solid-phase immobilized on the plate was detected as absorbance at a wavelength of 405 nm using ELISA POD.
# [2] = target: T2, human EphA2 expressed on cell surface (human, UniProt P29317 24-976); assay: flow cytometry, phage stock on transfected HEK293T cells, anti-M13 antibody and fluorescein anti-mouse IgG, FL1 [A) (2]
# T2 construct: whole, on cells; also called human EphA2-expressing cells
# Description: as §1, with “The” for “As to 3 clones (α-EphA2 #1 to #3: corresponding to SEQ ID NOs: 3 to 5, respectively, in the Sequence Listing and to Nos. 2 to 4, respectively in FIG. 4) selected from the Escherichia coli colonies after the final round of panning with hEphA2 as a target molecule, an Escherichia coli suspension with OD_{600 nm}=0.3 was prepared using 2×YT/Amp/1% Glu. The”
# (§3) The transfected cells were recovered. The recovered cells were suspended in a FACS buffer (PBS containing 5% FBS) and applied to a nylon mesh. The solution was dispensed in an amount of 5×10⁵ cells/well to 96 Well Cell Culture Cluster Round Bottom With Lid (manufactured by Costar, Corning Inc.) and centrifuged to remove a supernatant. The phage stock solution prepared in the paragraph 1) of Example 4 was added to the resulting cells at a concentration of 50 μL/well, and the mixture was left standing at 4° C. for 30 minutes. […] Fluorescently stained cells were detected.
# [3] = target: T3, Recombinant Human VEGF165 (human, UniProt P15692-4 27-191); assay: phage panning and phage ELISA on hVEGF
# T3 construct: Isoform VEGF165; also called hVEGF
# Recombinant Human TNF-α = target: T4, Recombinant Human TNF-α (human, UniProt P01375 77-233); assay: phage panning and phage ELISA on hTNF-α
# T4 construct: also called hTNF-α
# [4] = target: T5, Recombinant Human EGF R/Fc Chimera, CF (human, UniProt P00533 25-645; P01857 100-330 = IgG part); assay: phage panning and phage ELISA on hEGFR/Fc (TACI_d2 mutant binding to the extracellular domain of human EGFR)
# T5 construct: range 25-645;range 100-330; R&D systems product; also called hEGFR/Fc
# [5] = target: T6, IgG-Free, Protease-Free Bovine Serum Albumin (bovine, UniProt P02769 25-607); assay: phage ELISA, BSA immobilized on a Maxisorp plate, two-fold dilutions of phage stock, anti-M13-HRP, OD405 nm [A) (2]
# T6 construct: also called BSA
# Description: as §1
# as §2, with “Each Maxisorp plate was washed with TBST. Then, an Anti-M13 antibody diluted 5000-fold was added thereto.” left out
# [6] = target: T2, human EphA2 expressed on cell surface; assay: flow cytometry, phage stock on transfected HEK293T cells, anti-M13 antibody and fluorescein anti-mouse IgG, FL1 [B) (4]
# Description: as §1, with “The” for “As to 3 clones (α-EphA2 #1 to #3: corresponding to SEQ ID NOs: 3 to 5, respectively, in the Sequence Listing and to Nos. 2 to 4, respectively in FIG. 4) selected from the Escherichia coli colonies after the final round of panning with hEphA2 as a target molecule, an Escherichia coli suspension with OD_{600 nm}=0.3 was prepared using 2×YT/Amp/1% Glu. The”
# as §3
# [7] = target: T3, Recombinant Human VEGF165; assay: SPR, Biacore 3000, hVEGF immobilized on sensor chip, mutant applied at various concentrations
# From the text: Examples of the determination-calculation system of surface plasmon resonance can include, but not limited to, Biacore system (GE Healthcare Japan Corp.). Procedures for the method using Biacore system are as follows: target molecules are immobilized onto a sensor chip of Biacore system by amine coupling; the target molecules are contacted with peptides at a plurality of peptide concentrations; the interaction therebetween is detected by surface plasmon resonance; a series of association and dissociation reactions is drawn in a sensorgram with time as the abscissa against the amount of binding (RU) as the ordinate; the sensorgram drawn at the plurality of peptide concentrations is fit to a 1:1 Langmuir model using BIAevaluation software (manufactured by GE Healthcare Japan Corp.) to calculate various rate parameters; and the dissociation constant is calculated from various rate parameters thus calculated.
# The gene of the hVEGF-binding TACI_d2 mutant (No. 9 in FIG. 4: SEQ ID NO: 10 in the Sequence Listing) obtained in Example 2 was amplified by PCR and inserted to a vector pET-32a for expression in Escherichia coli (Novagen, Merck KGaA). […] The affinity of the mutant was determined by a surface plasmon resonance method using Biacore 3000 (GE Healthcare Japan Corp.). […] The dissociation constant of the mutant for hVEGF was determined from the obtained sensorgram.
# [8] = target: T2, human EphA2 expressed on cell surface; assay: flow cytometry, phage stock on transfected HEK293T cells, anti-M13 antibody and fluorescein anti-mouse IgG, FL1 [A) (1]
# Description: as §1, with “The” for “As to 3 clones (α-EphA2 #1 to #3: corresponding to SEQ ID NOs: 3 to 5, respectively, in the Sequence Listing and to Nos. 2 to 4, respectively in FIG. 4) selected from the Escherichia coli colonies after the final round of panning with hEphA2 as a target molecule, an Escherichia coli suspension with OD_{600 nm}=0.3 was prepared using 2×YT/Amp/1% Glu. The”
# as §3
# T1 sequence (P29317 25-534 limits assumed): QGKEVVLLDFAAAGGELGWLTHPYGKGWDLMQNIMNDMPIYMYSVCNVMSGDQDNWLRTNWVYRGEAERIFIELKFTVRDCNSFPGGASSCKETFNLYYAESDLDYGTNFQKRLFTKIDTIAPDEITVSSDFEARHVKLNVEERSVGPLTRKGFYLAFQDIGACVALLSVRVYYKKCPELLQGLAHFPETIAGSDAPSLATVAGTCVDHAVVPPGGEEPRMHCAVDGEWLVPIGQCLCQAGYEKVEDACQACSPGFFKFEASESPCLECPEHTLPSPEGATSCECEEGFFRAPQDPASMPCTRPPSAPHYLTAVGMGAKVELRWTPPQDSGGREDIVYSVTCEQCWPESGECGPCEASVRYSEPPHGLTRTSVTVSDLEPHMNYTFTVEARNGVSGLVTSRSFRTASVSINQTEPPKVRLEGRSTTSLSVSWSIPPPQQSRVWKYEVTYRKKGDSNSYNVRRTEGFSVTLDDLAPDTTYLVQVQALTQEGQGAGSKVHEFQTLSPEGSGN
# T4 sequence (P01375 77-233 limits assumed): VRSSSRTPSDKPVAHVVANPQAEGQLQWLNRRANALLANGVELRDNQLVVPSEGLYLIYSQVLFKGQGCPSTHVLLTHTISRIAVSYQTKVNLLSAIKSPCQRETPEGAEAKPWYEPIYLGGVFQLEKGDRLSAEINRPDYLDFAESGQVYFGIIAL
# T3 sequence (P15692 other isoform, or with tags, fused parts or gaps limits assumed): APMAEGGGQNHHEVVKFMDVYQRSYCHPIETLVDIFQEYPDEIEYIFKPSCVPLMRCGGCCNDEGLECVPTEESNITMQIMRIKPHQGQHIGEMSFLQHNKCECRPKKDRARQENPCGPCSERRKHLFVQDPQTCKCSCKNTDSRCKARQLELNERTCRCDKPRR
# T2 sequence (P29317 24-976): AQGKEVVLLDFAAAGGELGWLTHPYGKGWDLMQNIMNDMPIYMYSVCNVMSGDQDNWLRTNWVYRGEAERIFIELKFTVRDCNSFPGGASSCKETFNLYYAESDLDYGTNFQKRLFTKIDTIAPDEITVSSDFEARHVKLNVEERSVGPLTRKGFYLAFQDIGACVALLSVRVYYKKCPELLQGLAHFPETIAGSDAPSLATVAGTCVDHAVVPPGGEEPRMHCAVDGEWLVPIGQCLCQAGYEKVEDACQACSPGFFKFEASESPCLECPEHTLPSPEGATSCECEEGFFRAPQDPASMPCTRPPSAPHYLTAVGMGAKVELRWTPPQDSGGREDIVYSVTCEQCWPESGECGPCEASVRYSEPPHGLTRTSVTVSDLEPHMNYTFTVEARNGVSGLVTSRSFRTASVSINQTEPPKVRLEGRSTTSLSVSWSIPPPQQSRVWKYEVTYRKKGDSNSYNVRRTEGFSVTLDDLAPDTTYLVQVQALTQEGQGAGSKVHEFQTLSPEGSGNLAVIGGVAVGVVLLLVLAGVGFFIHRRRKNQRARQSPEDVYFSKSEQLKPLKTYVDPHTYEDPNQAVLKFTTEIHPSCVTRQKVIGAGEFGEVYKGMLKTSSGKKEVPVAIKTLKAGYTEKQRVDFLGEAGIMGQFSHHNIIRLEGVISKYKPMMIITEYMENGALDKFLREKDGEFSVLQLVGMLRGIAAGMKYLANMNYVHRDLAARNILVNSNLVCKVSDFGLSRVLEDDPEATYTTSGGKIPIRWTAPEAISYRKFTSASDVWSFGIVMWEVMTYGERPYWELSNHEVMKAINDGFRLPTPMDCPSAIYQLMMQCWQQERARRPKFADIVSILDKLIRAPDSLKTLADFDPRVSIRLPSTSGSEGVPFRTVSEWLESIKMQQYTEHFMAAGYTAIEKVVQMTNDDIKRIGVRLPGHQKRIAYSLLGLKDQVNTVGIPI
# T6 sequence (P02769 25-607 limits assumed): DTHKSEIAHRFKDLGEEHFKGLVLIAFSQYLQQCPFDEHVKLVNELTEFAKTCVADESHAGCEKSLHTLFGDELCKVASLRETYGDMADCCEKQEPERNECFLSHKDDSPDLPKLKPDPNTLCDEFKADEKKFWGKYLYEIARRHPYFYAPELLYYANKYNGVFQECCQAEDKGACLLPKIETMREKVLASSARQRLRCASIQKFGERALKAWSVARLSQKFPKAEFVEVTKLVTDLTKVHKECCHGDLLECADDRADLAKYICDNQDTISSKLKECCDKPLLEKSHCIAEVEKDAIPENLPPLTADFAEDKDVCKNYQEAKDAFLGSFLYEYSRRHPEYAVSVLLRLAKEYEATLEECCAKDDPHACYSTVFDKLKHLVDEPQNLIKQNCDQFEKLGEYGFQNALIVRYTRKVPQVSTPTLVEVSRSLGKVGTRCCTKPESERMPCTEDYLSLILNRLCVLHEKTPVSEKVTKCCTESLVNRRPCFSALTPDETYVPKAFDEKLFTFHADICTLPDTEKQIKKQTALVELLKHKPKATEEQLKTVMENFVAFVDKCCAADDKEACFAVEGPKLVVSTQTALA
binder,measurement,setting,value
"SLSCRKEQGKMYLLKEWDCASCASACGNHPHYCAYFCEN (designed binder, also called α-EphA2 #2) [α-EphA2 TACI_d2 #2]",binding result,[1],binds
same,binding result,[2],binds
SLSCRKEQGKIYMTWHDDCHSCASLCGSHPLFCAYFCEN (designed binder) [human VEGF-binding peptide (5)],binding result,[3],binds
SLSCRKEQDKTYIEYGFDCRSCASGCGGHPLMCAYFCEN (designed binder) [human TNFα-binding peptide (2)],binding result,Recombinant Human TNF-α,binds
SLSCRKEQGKEYGAIAWDCSSCASYCGAHPFECAYFCEN (designed binder) [human EGFR-binding peptide (2)],binding result,[4],binds
SLSCRKEQGKDYMVFGQDCHSCASWCGKHPVACAYFCEN (designed binder) [human VEGF-binding peptide (6)],binding result,[3],binds
SLSCRKEQGKSYGAIMYDCSSCASYCGEHPWHCAYFCEN (designed binder) [human EGFR-binding peptide (1)],binding result,[4],binds
SLSCRKEQGKNYIHQQWDCASCASECGGHPNYCAYFCEN (designed binder) [human EGFR-binding peptide (3)],binding result,[4],binds
SLSCRKEQGKQYMAGHFDCNSCASRYGHHPLMCAYFCEN (designed binder) [human TNFα-binding peptide (1)],binding result,Recombinant Human TNF-α,binds
SLSCRKEQGKSYTSEWFDCASCASKYGKHPLVCAYFCEN (designed binder) [human TNFα-binding peptide (3)],binding result,Recombinant Human TNF-α,binds
"SLSCRKEQGKFYDHLLRDCISCASICGQHPKQCAYFCENKLR (receptor, UniProt O14836 68-109, looked up, also called WT) [wild-type TACI_d2]",binding result,[5],no binding
same,binding result,[1],no binding
same,binding result,[6],no binding
"SLSCRKEQGKMYDLYGFDCRSCASMCGKHPDLCAYFCEN (designed binder, Expressed from pET-32a in E. coli Origami B; thioredoxin tag and His tag removed by thrombin cleavage; monomer peak of size exclusion chromatography used; also called the mutant) [hVEGF-binding TACI_d2 mutant (No. 9 in FIG. 4), purified monomer]",Kd,[7],14 µM
"SLSCRKEQGKMYDLYGFDCRSCASMCGKHPDLCAYFCEN (designed binder, The purified free form is m26) [human VEGF-binding peptide (2), phage-displayed]",binding result,[3],binds
SLSCRKEQGKMYMVWTQDCKSCASWCGAHPVACAYFCEN (designed binder) [human VEGF-binding peptide (3)],binding result,[3],binds
"SLSCRKEQGKQYLLREWDCDSCASECGSHPHYCAYFCEN (designed binder, also called α-EphA2 #1) [α-EphA2 TACI_d2 #1]",binding result,[1],binds
same,binding result,[8],binds
SLSCRKEQGKWYMTWESDCKSCASWCGSHPFDCAYFCEN (designed binder) [human VEGF-binding peptide (1)],binding result,[3],binds
SLSCRKEQGKIYNQYGFDCKSCASWCGKHPDMCAYFCEN (designed binder) [human VEGF-binding peptide (4)],binding result,[3],binds
"SLSCRKEQGKHYLLKEYDCDSCASECGYHPDYCAYFCEN (designed binder, also called α-EphA2 #3) [α-EphA2 TACI_d2 #3]",binding result,[1],binds
